ELISA affinity (LogIC50 (oD450nm)) data for 22 molecules are collected here from US20230176070A1.

B1: G80 (VHH)
VHH: QVQLVESGGGLVQAGASLRLSCAASRGTFSSYTMGWFRQAPGKERLFVASISRDGGTTYYADSVKGRFTISRDNAENILYLQMNSLKPEDTAVYYCAAASRHPSTWEVWGLEYYYWGQGTQVTVSS
B2: G25 (VHH)
VHH: EVQLVESGGGLVQAGGSLRLSCAASGRTFSGRTFSDYPMAWFRQAPGKEREFLATISTSGSRTYYADSVKGRFTISRDNAKDTVYLQMNSLKPEDAAIYYCAARQGSYYSDYNRALPGEYDYWGQGTQVTVSS
B3: G16 (VHH)
VHH: EVQLVESGGGLVQPGGSLRLSCAASGSTFSINAIGWYRQAPGKEREFVAALRWPGNIWYYADFVEGRITISRDNAKNTVYLQMNSLKPEDTAVYYCAARPENRGSYRDAATYDFWGQGTQVTVSS
B4: G79 (VHH)
VHH: DVQLVESGGGLVQAGGSLRLSCATSGRTFSTYAAGWFRQRPGKEREFVATIHWNDGRTLYADSVKGRFTLSRDNAQNTVYLQMNSLKPEDTAVYYCAAYTYRIGSYDVSTSQGYDYWGQGTQVTVSS
B5: G98 (VHH)
VHH: QVQLVESGGGLVQAGDSLRLSCATSGRTFSTYAAGWFRQRPGKEREFVATIHWNDGRTLYADSVKGRFTLSRDNAQNTVYLQMNSLKPEDTAVYYCAASTYRIGSYDVSTSQGYDYWGQGTQVTVSS
B6: G27 (VHH)
VHH: DVQLVESGGDLVQAGGSLRLSCSASGNIFKINDMDWYRQAPGKQRELVARISSSGSTNYADSVKGRFTISRDNGKNTVYLQMNRVKPEDTAVYYCNADVQVSRNYEYEYWGQGTQVTVSS
B7: G86 (VHH)
VHH: EVQLVESGGGLVQAGDSLRLSCAASGRTFSSYTMGWFRQAPGKEREFVAGIRWSGGSTYFTNYEDSVKGRFTISKDNAKNTVFLQMNSLRPEDTAVYYCAFTGHYSTYDSPQRYDYWGQGTQVTVSS
B8: G89 (VHH)
VHH: EVQLVESGGGLVQAGGSLSLSCAASGSINSINAMGWFRQAPGKQRELVATITRGGSTNYADSVKGRFTISIDNAKNTVYLQMNSLKPEDTAVYYCNADRGTDDGWLYDYWGQGTQVTVSS
B9: G8 (VHH)
VHH: QVQLVESGGGLVQAGGSLRLSCAASGITSSIASMGWFRQAPGKEEEFVARIRWNTDNTYYADSVKGRFTISRDNAQNTVYLQMNRLKPEDTAVYYCVARRGWSDLLYDYRGQGTQVTVSS
B10: G20 (VHH)
VHH: DVQLVESGGGLVQAGGSLRLSCAASERTFSRYMLGWFRQAPGKEREFVGVMGWSDSDTYYGDAVKGRFTISRDNVKNTIYLQMKSLKPEDTAVYYCAASAYGSTRNHKLYEYWGQGTQVTVSS
B11: G14 (VHH)
VHH: EVQLVESGGGLVQAGGSLRLSCAASGSTFDTNPIGWYRQAPGKQRDLVAMITSGGHTNYADSVKGRFTISRDNAKNTVYLQMNSLKPEDTAVYYCTVPHYREDGYEYHFWGQGTQVTVSS
B12: G19 (VHH)
VHH: QVQLVESGGGLVQAGGSLRLSCAASGSTFSTNAVDWYRQAPGNQRDLVATITSGGHTNYADSVKGRFTISRDNAKNTVYLQMNSLKPEDTAVYYCAVPHYREDGYEYRFWGQGTQVTVSS
B13: G15 (VHH)
VHH: QVQLVESGGGLVQAGGSLRLSCAASGSTFDTNPIGWYRQAPGKQRDLVAMITSGGHTNYADSVKGRFTISRDNAKNTVYLQMNSLKPEDTAVYYCTVPHYREDGYEYHCWGQGTQVTVSS
B14: G90 (VHH)
VHH: DVQLVESGGGLVQAGGSLRLSCAASGLTFSNYAMGWFRQAPGKEREFAAGITWNGGASHYADSVKGRFTISRDNAQNTVYLQMNSLKPEDTAVYYCAARLGSVAYPGLRYDYWGQGTQVTVSS
B15: G91 (VHH)
VHH: EVQLVESGGGLVQAGGSLRLSCAASGRTFSDYPMAWFRQALGKEREFLATISTSGSRTMYADSVKGRFTISRDNAKNMMYLQMNSLKPEDAAVYYCAARQGSYYSDYNRALPGEYHYWGQGTQVTVSS
B16: G93 (VHH)
VHH: QVQLVESGGGLVQPGGSLRLSCAASGSGFSSSIIGWHRQAPGKQRELVAAIGGPGSTNYADSVKGRFTISRDNAKNTAYLQMNNLKPEDSAVYYCEATTRSGREYWGQGTQVTVSS
B17: G97 (VHH)
VHH: EVQLVESGGGLVQAGGSLRLSCTASRSTFRVNPAGWYRQAPGKERELVARITSGGSTNYADSVKGRFTISRDNAKNTVYLQMNSLKPEDTAVYYCNVPCYMEDGYEHDAWGQGTQVTVSS
B18: G12 (VHH)
VHH: QVQLVESGGGLVQAGGSLRLSCAASRSTFRINAAGWYRQAPGKERELVARISSGGSTNYADSVKGRFTISRDNAKNTVYLQMNSLKPEDTAVYYCNVPYYREDGYEYDAWGQGTQVTVSS
B19: G96 (VHH)
VHH: DVQLVESGGGLVQAGGSLKLSCAAFGVTFDINTIAWYRQAPGKQREFVAHITSGGTTYYADSVKARFTMSRDSAKNTVYLQMNNLKPEDTAVYYCNVNPTWPYSGEVDYWGQGTQVTVSS
B20: G78 (VHH)
VHH: DVQLVESGGGLVQAGGSLRLSCTASQSILYINVMGWYRQAPGKQRELVAEIPTGGNTDYADSVKGRFTISRDNVKNTVSLQMNSLKPEDTAVYYCNVRGGVLSPYDYWGQGTQVTVSS
B21: G1 (VHH)
VHH: QVQLVESGGGLVQAGGSLRLSCAAPGSTFSTNIIAWYRQPPGKQRELVAAIGGPGSTNYADSVKGRFTISRDNAKNTGYLQMKSLKPDDTAVYYCNMVTQRGNEYWGQGTQVTVSS
B22: G23 (VHH)
VHH: QVQLVESGGGLVQPGGSLRLSCAASGFTFSVNTMSWVRQAPGKGREWVSGIESHGNTYYSDSVKGRFTISRDNAKNTLYLQMNSLKPEDTAVYYCATGIYGTTRNWGQGTQVTVSS

The target in this assay is glutathione S-transferase [GST: P08515]. The assay is described as follows: indirect ELISA, GST coated. For orientation: In an ELISA, binding on a coated surface is turned into a signal by an enzyme label.
glutathione S-transferase [GST: P08515], sequence (P08515 whole entry): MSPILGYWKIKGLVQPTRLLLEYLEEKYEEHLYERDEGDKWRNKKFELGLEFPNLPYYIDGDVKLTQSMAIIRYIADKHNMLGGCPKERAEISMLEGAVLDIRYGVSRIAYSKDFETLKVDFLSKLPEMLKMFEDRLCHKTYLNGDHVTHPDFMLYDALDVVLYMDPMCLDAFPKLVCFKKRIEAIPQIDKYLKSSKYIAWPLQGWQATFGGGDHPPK
Regarding B1, the ELISA affinity (LogIC50 (oD450nm)) is 4.43. Molecule B2 had an ELISA affinity (LogIC50 (oD450nm)) of 1.57. Regarding B3, the ELISA affinity (LogIC50 (oD450nm)) is 5.68. Then B4, with 2.07; and B5, with 4.67. With B6, the ELISA affinity (LogIC50 (oD450nm)) came to 1.36. Next, B7: 5.54. The molecule B8 came in with an ELISA affinity (LogIC50 (oD450nm)) of 5.74. With B9, the ELISA affinity (LogIC50 (oD450nm)) came to 4.66. Next, B10: 2.43; B11: 5.27. Then B12, with 9. The molecule B13 registered an ELISA affinity (LogIC50 (oD450nm)) of 4.61. As for B14, the ELISA affinity (LogIC50 (oD450nm)) was found to be 5.83. Next, B15: 1.15; B16: 2.16. Then B17, with 3.3; and B18, with 4.21.

B19 gave an ELISA affinity (LogIC50 (oD450nm)) of 6.77. B20 had an ELISA affinity (LogIC50 (oD450nm)) of 2.08. Then B21, with 2.93; and B22, with 2.54.
